One experiment deals with T1, KIR2DS2 (Homo sapiens, UniProt P43631).
T1 construct: made in house
The experiment in a line: KIR2DS2 tetramer (KIR2DS2-PE) staining of peptide-loaded L721.174 cells. In kind it is binding. The settings on record: L721.174 cells incubated overnight at 26° C. with peptide, flow cytometry. On the procedure:
A. The KIR2DS2 protein was expressed with a biotinylation C-terminal tag. Following biotinylation with the BirA enzyme, the KIR2DS2 protein was incubated with streptavidin-phycoerythrin to form fluorescent KIR2DS2-tetramers (KIR2DS2-PE). L721.174 cells were then incubated with indicated peptides. Cells were then stained with KIR2DS2-PE and analysed by flow cytometry. Shown are histogram plots. The bold numbers represent the mean fluorescent staining intensity of the KIR2DS2-PE staining of the cells in the presence of peptide and the non-bold numbers the staining in the absence of peptide. B. Represents the mean and standard error fluorescent intensities of the experiment in “A” following replicate experiments.
A. L721.174 cells were incubated with indicated peptides. Cells were then stained with KIR2DS2-PE (see FIG. 4) and analysed by flow cytometry. Shown are histogram plots. The bold numbers represent the mean fluorescent staining intensity of the KIR2DS2-PE staining of the cells in the presence of peptide and the non-bold numbers the staining in the absence of peptide. B. Represents the mean and standard error fluorescent intensities of the experiment in “A” following replicate experiments.
FIG. 13—KIR2DS2 tetramer staining on 174 cells with and without peptides. Peptides tested include IVDLMCHATF (SEQ ID NO: 1); VIDAMCHATL (SEQ ID NO: 2); AANVMAASL (SEQ ID NO: 3); and FLSDVPVATL (SEQ ID NO: 4). A negative control peptide VAPWNSFAL (SEQ ID NO: 12) and positive control peptide LNPSVAATL (SEQ ID NO: 5) were included. The mean fluorescence intensity of the KIR2DS2 tetramer staining is shown in the right hand corner of the graph.
With reference to FIG. 4A, the KIR2DS2 protein was expressed as a recombinant protein with a biotinylation C-terminal tag. Following biotinylation with the BirA enzyme, the KIR2DS2 protein was incubated with streptavidin-phycoerythrin to form fluorescent KIR2DS2-tetramers (KIR2DS2-PE). 3×10^5 L721.174 cells were then incubated overnight at 26° C. with indicated peptides at a concentration of […]. Cells were then stained with KIR2DS2-PE and analysed by flow cytometry. Shown are histogram plots. The bold numbers represent the mean fluorescent staining intensity of the KIR2DS2-PE staining of the cells in the presence of peptide and the non-bold numbers the staining in the absence of peptide. With reference to FIG. 4B, panel B represents the mean and standard error fluorescent intensities of the experiment in “A” following replicate experiments.
With reference to FIG. 5A, 3×10^5 L721.174 cells were incubated overnight at 26° C. with indicated peptides at a concentration of 200 μM. Cells were then stained with KIR2DS2-PE (see FIG. 4) and analysed by flow cytometry. Shown are histogram plots. The bold numbers represent the mean fluorescent staining intensity of the KIR2DS2-PE staining of the cells in the presence of peptide and the non-bold numbers the staining in the absence of peptide. With reference to FIG. 5B, panel B represents the mean and standard error fluorescent intensities of the experiment in “A” following replicate experiments.
With reference to FIG. 13, the KIR2DS2 protein was expressed as a recombinant protein with a biotinylation C-terminal tag. Following biotinylation with the BirA enzyme, the KIR2DS2 protein was incubated with streptavidin-phycoerythrin to form fluorescent KIR2DS2-tetramers (KIR2DS2-PE). […] Cells were then stained with KIR2DS2-PE and analysed by flow cytometry. […]
(In general: A flow cytometer gives signals particle by particle.)

For experiment [1], the target named is T2, HLA-Cw*0102 (Homo sapiens, UniProt P10321, A176E/A330V/A35S/A97T/C350S/D114A/D33F/L171W/L180R/L218V/M285V/M309V/M331V/P208H/Q277E/Q291P/R121W/R243W/R30K/S123C/S140Y/S297R/T329A/T363A/V272M/V319A). The experiment in a line: Peptide binding to HLA-Cw*0102 on L721.174 cells (cell surface MHC class I, flow cytometry). In kind it is cell-based. The settings on record: increasing concentrations of peptide, overnight at 26° C. On the procedure: The HLA-Cw*0102-positive cell line L721.174 was incubated with increasing concentrations of the LNPSVAATL (SEQ ID NO: 5) peptide or a control peptide VAPWNSLSL (SEQ ID NO: 11). Cells were stained for cell surface of MHC class I and analysed by flow cytometry. The mean fluorescence intensity of cell surface MHC Class I was plotted against the peptide concentration.
The HLA-Cw*0102 • positive cell line L721.174 was incubated with increasing concentrations of the peptides IVDLMCHATF (SEQ ID NO: 1); VIDAMCHATL (SEQ ID NO: 2); AANVMAASL (SEQ ID NO: 3); and FLSDVPVATL (SEQ ID NO: 4) or a control peptide […]. Cells were stained for cell surface of MHC class I and analysed by flow cytometry. The mean fluorescence intensity of cell surface MHC Class I was plotted against the peptide concentration.
3×10^5 cells were used per condition. Following washing in PBS the cells were stained for cell surface of MHC class I and analysed by flow cytometry. The mean fluorescence intensity of cell surface MHC Class I was plotted against the peptide concentration.
With reference to FIG. 12, the HLA-Cw*0102-positive cell line L721.174 was incubated with increasing concentrations of the peptides IVDLMCHATF (SEQ ID NO: 1), VIDAMCHATL (SEQ ID NO: 2), AANVMAASL (SEQ ID NO: 3); and FLSDVPVATL (SEQ ID NO: 4) overnight at 26° C. 3×10^5 cells were used per condition. Following washing in PBS the cells were stained for cell surface of MHC class I and analysed by flow cytometry. The mean fluorescence intensity of cell surface MHC Class I was plotted against the peptide concentration.

The subject of experiment [2] is NKL cell line transfected with KIR2DS2. The experiment in a line: Vav1 phosphorylation (pVav1 Western blot) in NKL cells transfected with KIR2DS2. The format is cell-based. The settings on record: HLA-C*0304:ICP47:721.221 cells loaded with peptide; 5 minutes. On the procedure:
A. L721.174 cells were incubated with indicated peptides. The cells were then incubated with the NK cell line transfected with KIR2DS2. The cells were lysed and the KIR2DS2 was then immunoprecipitated from the mixture using the GL183 antibody coupled to protein-G beads. The immune precipitate was analysed by Western blotting using a phosphotyrosine antibody. The membrane was then stripped and reprobed with an antibody to DAP12 the molecule that transduces a positive signal from KIR2DS2. Shown are the regions on the blots at the level of DAP12 (12-15 kDa). B. L721.174 cells were incubated with indicated peptides. The cells were then incubated with the NK cell line transfected with KIR2DS2 or transfected with KIR2DL2. The cells were lysed in 1% NP-40 and then analysed by Western blotting using antibodies to pVav1 and then following stripping of the membrane to Vav1. Shown are Western blots around the 98 kDa region, and below them the corresponding densitometries for 3 independent experiments.
FIG. 7 1×10^6 L721.221-HLA-C*0304-ICP47 cells were incubated overnight at 26° C. with indicated peptides at a concentration of […]. The cells were then incubated with the NKL cell line transfected with KIR2DS2 or transfected with KIR2DL2 for 5 minutes. The cells were lysed in 1% NP-40 and then analysed by Western blotting using antibodies to pVav1 and then following stripping of the membrane to Vav1. Shown are Western blots around the 98 kDa region, and below them the corresponding densitometries for 2 independent experiments.
FIG. 14—The Dengue virus peptide IVDLMCHATF (SEQ ID NO: 1) activates KIR2DS2 positive NK cells. 174 cells were incubated with the IVDLMCHATF (SEQ ID NO: 1) and then KIR2DS2-positive transfected NKL cells or KIR2DL2-positve transfected NKL cells. Activation of NK cells was assessed by western blotting for phosphorylated Vav1, and compared to total Vav1.
With reference to FIG. 6A, 1×10^6 L721.174 cells were incubated overnight at 26° C. with indicated peptides at a concentration of […]. The cells were then incubated with the NK cell line transfected with KIR2DS2 for 5 minutes. The cells were lysed in 1% digitonin buffer and the KIR2DS2 was then immunoprecipitated from the mixture using the GL183 antibody coupled to protein-G beads. The immune precipitate was analysed by Western blotting using a phosphotyrosine antibody. […] The cells were lysed in 1% NP-40 and then analysed by Western blotting using antibodies to pVav1 and then following stripping of the membrane to Vav1. […]
With reference to FIG. 7, 1×10^6 HLA-C*0304:ICP47:721.221 cells were incubated overnight at 26° C. with indicated peptides at a concentration of […]. […] The cells were lysed in 1% NP-40 and then analysed by Western blotting using antibodies to pVav1 and then following stripping of the membrane to Vav1. […]
(In general: Immunoblotting shows a protein as a band on a membrane.)

Experiment [3] concerns KIR2DS2-negative donor NK cells. The experiment in a line: CD107a degranulation of NK cells from KIR2DS2-negative donors cultured with peptide-loaded L721.174 cells. The format is cell-based. Particulars: CH-L antibody positive NK cells, four hours, compared to no peptide. On the procedure:
(§1) A. cells were incubated in the presence or absence of peptides, and then cultured with NK cells from either a KIR2DS2-positive or KIR2DS2-negative donor. The level of CD107a (LAMP) expression was measured on NK cells positive for the CH-L antibody. This antibody binds to KIR2DS2, KIR2DL2 and KIR2DL3. B. Summary data from 5 KIR2DS2-positive and 6 KIR2DS2 • negative donors tested as per panel A of FIG. 2. To compare the different donors the data are normalized to 100% for the no peptide condition.
(§2) With reference to FIG. 2A, 3×10^5 L721.174 cells were incubated at 26° C. overnight in the presence or absence of peptides, and then cultured for four hours with NK cells from either a KIR2DS2-positive or KIR2DS2-negative donor. The level of CD107a (LAMP) expression was measured on NK cells positive for the CH-L antibody. This antibody binds to KIR2DS2, KIR2DL2 and KIR2DL3. […] With reference to FIG. 2B, summary data from 5 KIR2DS2-positive and 6 KIR2DS2 • negative donors were tested as per panel A of FIG. 2. To compare the different donors the data are normalized to 100% for the no peptide condition.

Experiment [4] deals with KIR2DS2-positive NK cells. The experiment is described as follows: CD107a degranulation of NK cells from KIR2DS2-positive donors cultured with peptide-loaded L721.174 cells. Particulars: KIR2DS2-positive donor, CH-L antibody positive NK cells, four hours, compared to no peptide. The format is cell-based. Here is the method:
as §1, §2

Experiment [5] addresses T2, HLA-Cw*0102. The settings on record: control peptide, known binder; cited from earlier work.

T1 sequence (P43631 22-245 limits assumed): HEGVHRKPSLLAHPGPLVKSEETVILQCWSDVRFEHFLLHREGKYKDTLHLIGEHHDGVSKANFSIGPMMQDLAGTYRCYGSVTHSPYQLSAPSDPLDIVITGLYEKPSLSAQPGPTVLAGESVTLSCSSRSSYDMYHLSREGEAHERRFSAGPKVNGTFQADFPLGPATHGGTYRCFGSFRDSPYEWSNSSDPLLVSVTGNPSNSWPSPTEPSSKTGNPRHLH

With AANVMAASL, the “KIR2DS2-PE tetramer binding to HLA-C*0102 and peptide” value in the experiment with KIR2DS2 is “KIR2DS2 BINDS”. Further, in the experiment with HLA-Cw*0102 [1], the “binding to HLA-Cw*0102 (mean fluorescence intensity of cell surface MHC Class I)” value is on record as “bind HLA-Cw*0102”. For FLSDVPVATL the same measures were “KIR2DS2 BINDS” and “bind HLA-Cw*0102”. Consider GAVPDLATL, for which the “activation of KIR2DS2 (pVav1 vs Vav1)” value in experiment [2] is given as “KIR2DS2 IS ACTIVATED”. As for GAVPDLAWL, the “activation of KIR2DS2 (pVav1 vs Vav1)” value in experiment [2] is recorded as “KIR2DS2 IS ACTIVATED”. On to “VAPWNSFAL [VAP-FA, negative control peptide, reference compound]”, for which the “level of CD107a (LAMP) degranulation” value in experiment [3] and in experiment [4] was “lower levels of degranulation” each time. Take VAPWNSLSL: in the experiment with HLA-Cw*0102 [5], the “binding to HLA-Cw*0102” value is “known to bind HLA-Cw*0102”. In the case of VIDAMCHATL, the “KIR2DS2-PE tetramer binding to HLA-C*0102 and peptide” value in the experiment with KIR2DS2 is on record as “KIR2DS2 BINDS”. Moreover, the “binding to HLA-Cw*0102 (mean fluorescence intensity of cell surface MHC Class I)” value with HLA-Cw*0102 [1] was “bind HLA-Cw*0102”.

Source of the values: patent publication US10736933B2, “Peptide-induced NK cell activation” (priority 2015, dated 2020).
